This assay addresses tau-RFP (full-length 2N4R wild-type tau fused to the N-terminus of TagRFP) (UniProt P10636). The experiment in a line: fluorescence lifetime FRET in live HEK293 cells, titration of tau-RFP acceptor to tau-GFP donor.

The substance “tau-GFP (full-length 2N4R wild-type tau fused to the N-terminus of EGFP) (from UniProt P10636 2-758)” returned a maximum energy transfer efficiency (E) of 0.086.
